Experiments:
[1] = molecular target: CD68 on macrophages of mouse splenocytes (mouse) (UniProt P31996); experiment: cell-based or functional assay
[2] = molecular target: Discoidin domain receptor tyrosine kinase 2 (DDR2) on neonatal rat cardiac fibroblasts (rat); experiment: cell-based or functional assay

Sequence of UniProt P31996 (P31996 21-326): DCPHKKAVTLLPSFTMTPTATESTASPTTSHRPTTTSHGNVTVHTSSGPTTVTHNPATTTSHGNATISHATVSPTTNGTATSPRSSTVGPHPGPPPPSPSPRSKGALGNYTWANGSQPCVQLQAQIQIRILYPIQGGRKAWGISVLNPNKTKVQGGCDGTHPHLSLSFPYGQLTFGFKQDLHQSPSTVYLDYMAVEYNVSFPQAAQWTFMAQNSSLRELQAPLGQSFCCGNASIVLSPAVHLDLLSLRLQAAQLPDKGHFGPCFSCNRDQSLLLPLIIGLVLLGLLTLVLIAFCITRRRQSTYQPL

macrophage uptake of FITC:CD68-cloaked CDCexo by FACS, 5 minutes of incubation [1] | macrophage uptake of FITC:CD68-cloaked CDCexo by FACS, 15 minutes of incubation [1] | rate of uptake of control-cloaked CDCexo by rat cardiac fibroblasts, flow cytometry [2] | uptake of bio-IgG/FITC CDC-EV by neonatal rat cardiac fibroblasts after twelve hours, flow cytometry [2] | Substance
91% | 93% |  |  | biotinylated CD68 monoclonal antibody (bio-CD68), clone FA-11 (ThermoFisher)
 |  | 5% | 5% | biotinylated IgG isotype antibody (bio-IgG) control (rabbit IgG isotype control, Abcam cat # ab200208)

Source: patent publication US20200316226A1
